Patent publication US20240207432A1 (BIOSION, published 2024)

T1: human TROP2-his protein (human, UniProt P09758 27-274)
T1 construct: Biotin-labelled in the ELISAs, unlabelled analyte in Biacore; also called biotin-labeled human TROP2-his protein; biotin human Trop2-his
T1 sequence: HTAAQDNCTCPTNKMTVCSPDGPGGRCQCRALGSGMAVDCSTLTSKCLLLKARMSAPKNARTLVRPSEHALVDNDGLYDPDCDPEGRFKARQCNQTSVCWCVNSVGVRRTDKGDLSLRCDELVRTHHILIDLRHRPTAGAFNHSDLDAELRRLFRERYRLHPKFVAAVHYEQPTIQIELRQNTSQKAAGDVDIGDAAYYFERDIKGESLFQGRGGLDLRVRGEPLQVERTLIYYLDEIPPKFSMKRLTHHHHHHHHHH

T2: cynomolgus TROP2-his protein (cynomolgus monkey, UniProt P09758 27-272 (human entry), limits assumed)
T2 construct: no cleavage site is stated; also called Cynomolgus monkey TROP2-his protein; monkey TROP2
T2 chain: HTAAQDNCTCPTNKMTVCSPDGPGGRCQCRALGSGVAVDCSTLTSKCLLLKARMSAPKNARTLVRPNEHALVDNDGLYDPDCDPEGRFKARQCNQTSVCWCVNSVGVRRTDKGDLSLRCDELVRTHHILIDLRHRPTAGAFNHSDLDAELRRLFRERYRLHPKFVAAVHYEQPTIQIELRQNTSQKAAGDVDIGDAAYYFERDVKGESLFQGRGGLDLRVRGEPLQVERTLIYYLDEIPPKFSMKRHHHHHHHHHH

B1: mouse antibody A1E11A12D1 (antibody, V domains shown)
VH: QVQLQQSGAELARPGASVKLSCMASGYTFTTYGISWVRQRTGQGLEWIGQIYPGSDYSYCDEDFKGKATLTADKSSSTAYMQLSSLTSEDSAVYFCARASYFDYWGQGTTLTVSS
VL: DILLTQSPAILSVSPGERVSFSCRASQTIGTAIHWYQQRANGSPRLLIKYASESISGIPSRFSGSGSGTDFALSINTVESEDFAYYYCQQSNNWPFTFGGGTKLEIR
notes: Mouse monoclonal IgG purified from hybridoma supernatant
B2: benchmark (in house prepared sacituzumab) (antibody, human IgG1, kappa, V domains shown)
VH: SVQLQQSGSELKKPGASVKVSCKASGYTFTNYGMNWVKQAPGQGLKWMGWINTYTGEPTYTDDFKGRFAFSLDTSVSTAYLQISSLKADDTAVYFCARGGFGSSYWYFDVWGQGSLVTVSS
VL: DIQLTQSPSSLSASVGDRVSITCKASQDVSIAVAWYQQKPGKAPKLLIYSASYRYTGVPDRFSGSGSGTDFTLTISSLQPEDFAVYYCQQHYITPLTFGAGTKVEIKR
notes: also called BM; BM1
B3: mouse antibody C1B3B12D2 (antibody, V domains shown)
VH: QVQLQQSGPELVRPGTSVKMSCKAAGYTFTKFWIGWVKQRPGHGLEWIGNIYPGGAYINYNENFKGKATLTADTFSSTAYMQLNSLTSADSAIYYCAREGSSGYWGQGTTLTVSS
VL: DIVMTQSPSSLTVTAGEKVTLSCKCSQSLLNSGTQENYLTWYQQKPGQPPKMLIYWASIREPGVPDRFTGSGSGTDFTLTINNVQAEDLAVYYCQHDYSYPFTFGSGTKLEIK
notes: as for B1
B4: huA1E4F7D4-V16 (antibody, human IgG1, kappa, V domains shown)
VH: QVQLVQSGAEVKKPGASVKVSCKASGYSFTTHWIHWVRQAPGQGLEWIGTIFPSNAYAVYNQKFRDRATMTADTSISTAYIELSRLRSDDTAVYYCARASYFDYWGQGTTVTVSS
VL: EIVLTQSPATLSLSPGERATLSCRASQNIGTSIHWFQQKPGGAPRLLIKYASESISGIPSRFSGSGSGTDFTLTISSLEPEDFAVYYCQHSHSWPFTFGQGTKLEIKR
notes: Positions of the X residues are given in the claims; also called humanized antibody huA1E4F7D4-V16
B5: mouse antibody A1E4F7D4 (antibody, V domains shown)
VH: QVQLQQSGAELAKPGTSVKMSCEASGYSFTTHWIHWMKQRPGQGLEWIGTIFPSNAYAVYNQKFRDRAIMTADRSSTTAYIQLTGLTSEDSAVYYCARASYFDYWGQGTTLTVSS
VL: DILLTQSPATLSVSPGERVTFSCRASQNIGTSIHWFQQRTTGSPRLLIKYASESISGIPSRFSGSGSGTDFTLHINSVESEDIAHYYCQHSHSWPFTFGSGTKLEIQ
notes: Mouse monoclonal IgG purified from hybridoma supernatant; also called Mouse A1E4F7D4

Legend:
human TROP2-his protein [1] = target: T1, human TROP2-his protein; test: competitive ELISA: mouse A1H3C5H8E12 coated at 2 ug/mL, antibody premixed with biotin human TROP2-his; blocked: binding of TROP2-his to coated A1H3C5H8E12
Procedure: The mouse anti-TROP2 antibodies were tested for epitope binding in a competitive ELISA assay. […] ELISA plates were washed once with wash buffer (PBS+0.05% v/v Tween-20, PBST) and then blocked with 200 μl blocking buffer (5% w/v non-fatty milk in PBST) for 2 hours at 37° C. While blocking, the anti-TROP2 antibodies or controls were diluted with biotin labeled human TROP2-his protein (SEQ ID NO: 67, 34 ng/mL in 2.5% wA non-fatty milk in PBST), starting at 80 nM with a 5-fold serial dilution, and incubated at room temperature for 40 minutes. After plate washing for 4 times, the antibody/TROP2-his protein mixtures were added to the antibody coated plates, 100 μl per well. After incubation at 37° C. for 40 minutes, plates were washed 4 times again using wash buffer. Then the plates were added and incubated with 100 μl Peroxidase Streptavidin (1:10000 dilution in PBST buffer. Jackson Immunoresearch, Cat #016-030-084) for 40 minutes at 37° C. Plates were washed again using wash buffer. Finally, TMB was added and the reaction was stopped using 1M H₂SO₄. The absorbance of each well was read on a microplate reader using dual wavelength mode with 450 nm for TMB and 630 nm as the reference wavelength, and the OD (450-630) values were plotted against antibody concentration. Data was analyzed using Graphpad Prism software and IC₅₀ values were reported.

human TROP2-his protein [2] = target: T1, human TROP2-his protein; test: epitope grouping ELISA, 15 ug/ml antibody premixed with biotin human TROP2-his; competitor: coated huA1E4F7D4-V16
Procedure: (§1) Firstly, capture ELISA was performed to determine the concentration of biotin-labeled human Trop2 proteins appropriate for the epitope binning test. […] The plates were washed for 4 times, added with 100 μl/well of serially diluted biotin human Trop2-his proteins (SEQ ID NO: 67) in PBST with 2.5% non-fatty milk (starting from 1.3 μg/ml with a 5-fold serial dilution), and incubated for 40 min at 37° C. Then the plates were washed for 4 times and added with 100 μl/vell of HRP-streptavidin (Jackson Immuno Research, Cat #016-030-084). The plates were incubated for another 40 min at 37° C. Then the plates were washed again, and 100 μl/well TMB was added for color development at RT for 15 min followed by quenching with 50 μl 1M H₂SO₄. The OD values at 450 nm were read.
(§2) With the appropriate concentration determined above, epitope grouping ELISA was performed. […] ELISA plates were washed once with wash buffer (PBS+0.05% v/v Tween-20, PBST) and then blocked with 200 μl blocking buffer (5% w/w non-fatty milk in PBST) for 2 hours at 37° C. […] The mixtures were incubated at room temperature for 40 minutes. After plate washing for 4 times, the antibody/biotin-TROP2-his protein mixtures were added to the antibody coated plates, 100 μl per well, and incubated for another 40 min at 37° C. Then 100 μl/well of HRP-streptavidin was added and incubated for 40 min. Then OD₄₅₀ values were determined and the cross-competition capability was calculated (cross-competition capability of antibody X (%)=(OD₄₅₀ of Antibody X-[…] of Blank)/(OD₄₅₀ of no mAb-OD₄₃₀ of Blank)*100%).

human TROP2-his protein [3] = target: T1, human TROP2-his protein; test: epitope grouping ELISA, 15 ug/ml antibody premixed with biotin human TROP2-his; competitor: coated BM1
Procedure: as §1, §2

[4] = target: T2, cynomolgus TROP2-his protein; test: SPR Biacore, antibody captured on anti-human IgG CM5 chip, TROP2-his analyte
Procedure: (§3) Un-reacted moieties on the chip (biosensor) surface were blocked with ethanolamine. […] The antigen-antibody association kinetics was followed for 2 minutes and the dissociation kinetics was followed for 10 minutes. The association and dissociation curves were fit to a 1:1 Langmuir binding model using BIAcore evaluation software.

human TROP2-his protein [5] = target: T1, human TROP2-his protein; test: as above
Procedure: as §3

human TROP2-his protein [6] = target: T1, human TROP2-his protein; test: epitope grouping ELISA, 15 ug/ml antibody premixed with biotin human TROP2-his; competitor: coated BM2
Procedure: as §1, §2

human TROP2-his protein [7] = target: T1, human TROP2-his protein; test: capture ELISA, captured antibody, biotin human TROP2-his in solution, OD(450-630)
[8] = target: T2, cynomolgus TROP2-his protein; test: SPR Biacore, antibody captured on chip, TROP2-his analyte
human TROP2-his protein [9] = target: T1, human TROP2-his protein; test: as above

| Binder | IC50 (human TROP2-his protein [1]) [nM] | OD450 (human TROP2-his protein [2]) [OD450] | OD450 (human TROP2-his protein [3]) [OD450] | Kd [4] [nM] | Kd (human TROP2-his protein [5]) [nM] | OD450 (human TROP2-his protein [6]) [OD450] | EC50 (human TROP2-his protein [7]) [nM] | other results |
| --- | --- | --- | --- | --- | --- | --- | --- | --- |
| B1 | 0.933 | – | – | – | – | – | – | – |
| B2 | – | 1.61 | 0.048 | 0.529 | 0.983 | 0.031 | – | – |
| B3 | – | – | – | – | – | – | 0.117 | – |
| B4 | – | 0.027 | 1.42 | 0.132 | 0.183 | 1.92 | – | koff [4]: 0.000164 s⁻¹; kon [4]: 1.25e+06 M⁻¹ s⁻¹; koff (human TROP2-his protein [5]): 0.000195 s⁻¹; kon (human TROP2-his protein [5]): 1.06e+06 M⁻¹ s⁻¹ |
| B5 | 0.621 | – | – | – | – | – | 0.261 | Kd [8]: 0.0489 nM; koff [8]: 4.54e-05 s⁻¹; kon [8]: 930000 M⁻¹ s⁻¹; Kd (human TROP2-his protein [9]): 0.0554 nM; koff (human TROP2-his protein [9]): 4.7e-05 s⁻¹; kon (human TROP2-his protein [9]): 849000 M⁻¹ s⁻¹ |
